{"source": "paper PMC4070910", "about": "“Cathepsin S Signals via PAR2 and Generates a Novel Tethered Ligand Receptor Agonist” (PLoS ONE, 2014)", "key": {"human PAR2": {"test_system": "human PAR2", "assay": "Fura-2 calcium imaging in HeLa cells transfected with PAR2 cDNA", "format": "cell-based", "conditions": "PAR2-transfected HeLa; KVDGTS 100 µM, cathepsin S 2 µM, papain 2 µM, trypsin 10 nM; second agent after up to 60 minutes; room temperature", "description": "Human PAR2 cDNA was cloned as an Xho I-Hind III fragment (1206 bp) into pcDNA3.1(−). 10 µg of DNA were diluted into 0.5 ml of DMEM and mixed with 0.5 ml of DMEM containing 10 µl of Lipofectamine 2000 transfection reagent and incubated at room temperature for 20 minutes. HeLa cells were grown to confluence, trypsinized and 1×10^6 cells were pelleted in a 15 ml tube by centrifugation at 1000 rpm for 5 minutes. The DMEM-Lipofectamine 2000-DNA mixture (1 ml) was added to the cell pellet, resuspended gently and incubated at room temperature for 20 minutes. Four ml of complete DMEM with 10% FBS were added to the tube, mixed by inverting the tube several times, plated into a 96-well glass bottom plate at 20,000 cells/well, and placed in a 37°C CO2 incubator. HeLa cells transfected with vector alone or salmon sperm DNA (shown in the figures) were plated as a control. The medium was aspirated two days after transfection. Fura-2 was used as a ratiometric calcium-sensitive indicator as follows. 100 µl of complete DMEM containing 2 µM of Fura-2 were added to each well and left at room temperature in the dark for 1 hr. Following loading with Fura-2, the medium was aspirated and replaced with 90 µl of HEPES-buffered saline (20 mM HEPES, 115 mM NaCl, 5.4 mM KCl, 2 mM CaCl2, 0.8 mM MgCl2, 13.8 mM glucose, pH 7.4).\nImaging was performed using a Zeiss Axiovert 200 M microscope platform equipped with a flipping filter wheel for ratiometric imaging. Axiovision software, version 4.6 was used for image analysis of the cells which were excited at 340 nm and 380 nm. Ten µl of peptide agonist were added at 20 seconds after the start of the excitation procedure. Images were taken every 5 seconds, including at zero time, during a 3-minute period or longer if required. The software later analyzed all images taken during each excitation period. Typically, ratiometric changes were measured in 10–20 cells in each image. An average of the fluorescence of the cells in each image was calculated and plotted against time in seconds.\nHeLa cells transfected with PAR2 cDNA were subjected to ratiometric imaging as described above with PAR2 peptides, SLIGRL, KVDGTS, and SLIGKVDGTS in addition to the reverse peptides LRGILS and STGDVK at concentrations from 1 nM - 1 mM. Each of the concentration-dependent readings was performed in triplicate. Maximum intensities at each of the dilutions were calculated and plotted against concentration using GraphPad/PRISM software version 6.0 (Irvine, CA). Error bars represent +/−SEM."}, "PAR2": {"test_system": "PAR2", "conditions": "in vitro, cited from earlier work", "text": "PAR2 signaling has been implicated in the development of inflammatory and bowel diseases, asthma, itch and pain. The receptor is expressed on many types of cells including keratinocytes, sensory neurons, fibroblasts, endothelial cells, and inflammatory cells, [3]. Consistent with this broad expression, PAR2 is involved in numerous physiologic and pathophysiologic processes in response to both endogenous and exogenous proteases."}}, "note": "Where two headings read alike, the source gives them in different places."}
{"molecule": "papain: plant protease (protein, UniProt P00784 134-345, looked up) Papain: IPEYVDWRQKGAVTPVKNQGSCGSCWAFSAVVTIEGIIKIRTGNLNEYSEQELLDCDRRSYGCNGGYPWSALQLVAQYGIHYRNTYPYEGVQRYCRSREKGPYAAKTDGVRQVQPYNEGALLYSIANQPVSVVLEAAGKDFQLYRGGIFVGPCGNKVDHAVAAVGYGPNYILIKNSWGTGWGENGYIRIKRGTGNSYGVCGLYTSSFYPVKN", "values": [{"measurement": "effect as first agent on calcium response to second agent (in words)", "setting": "human PAR2", "result": "failed to induce a calcium response at any time up to 60 minutes"}, {"measurement": "PAR2 activation (in words)", "setting": "PAR2; plant proteases", "result": "supporting activation"}]}
{"molecule": "der p 1: dust mite allergen (protein, UniProt P08176 99-320, looked up) Peptidase 1: TNACSINGNAPAEIDLRQMRTVTPIRMQGGCGSCWAFSGVAATESAYLAYRNQSLDLAEQELVDCASQHGCHGDTIPRGIEYIQHNGVVQESYYRYVAREQSCRRPNAQRFGISNYCQIYPPNVNKIREALAQTHSAIAVIIGIKDLDAFRHYDGRTIIQRDNGYQPNYHAVNIVGYSNAQGVDYWIVRNSWDTNWGDNGYGYFAANIDLMMIEEYPYVVIL", "values": [{"measurement": "PAR2 activation (in words)", "setting": "PAR2; dust mite allergen", "result": "supporting activation"}]}
